# Laboratory results reported in patent publication US20050221395A1, “Methods and products based on oligomerization of stress proteins” (priority 2002, published 2005).
# “And” between values parts separate entries of the source, which are not always exact repeats. Equal values may be shown once.
# B1: gp96-peptide complex isolated from CT-26 tumors: Gp96-peptide complex isolated from murine CT-26 tumors; aliquots kept at 4° C. or heat treated (protein, UniProt P08113 22-802, looked up)
# Endoplasmin: DDEVDVDGTVEEDLGKSREGSRTDDEVVQREEEAIQLDGLNASQIRELREKSEKFAFQAEVNRMMKLIINSLYKNKEIFLRELISNASDALDKIRLISLTDENALAGNEELTVKIKCDKEKNLLHVTDTGVGMTREELVKNLGTIAKSGTSEFLNKMTEAQEDGQSTSELIGQFGVGFYSAFLVADKVIVTSKHNNDTQHIWESDSNEFSVIADPRGNTLGRGTTITLVLKEEASDYLELDTIKNLVRKYSQFINFPIYVWSSKTETVEEPLEEDEAAKEEKEESDDEAAVEEEEEEKKPKTKKVEKTVWDWELMNDIKPIWQRPSKEVEEDEYKAFYKSFSKESDDPMAYIHFTAEGEVTFKSILFVPTSAPRGLFDEYGSKKSDYIKLYVRRVFITDDFHDMMPKYLNFVKGVVDSDDLPLNVSRETLQQHKLLKVIRKKLVRKTLDMIKKIADEKYNDTFWKEFGTNIKLGVIEDHSNRTRLAKLLRFQSSHHSTDITSLDQYVERMKEKQDKIYFMAGSSRKEAESSPFVERLLKKGYEVIYLTEPVDEYCIQALPEFDGKRFQNVAKEGVKFDESEKTKESREATEKEFEPLLNWMKDKALKDKIEKAVVSQRLTESPCALVASQYGWSGNMERIMKAQAYQTGKDISTNYYASQKKTFEINPRHPLIRDMLRRIKEDEDDKTVMDLAVVLFETATLRSGYLLPDTKAYGDRIERMLRLSLNIDPEAQVEEEPEEEPEDTSEDAEDSEQDEGEEMDAGTEEEEEETEKESTEKDEL
# modifications: CT-26 tumor derived, complexed with peptides
# notes: Gp96-peptide complex isolated from murine CT-26 tumors; aliquots kept at 4° C. or heat treated
# Legend:
# [1] = ATPase activity, luciferin-luciferase luminescence assay (geldanamycin inhibitable); format: biochemical; details: for ATPase activity of SEC fractions (rate of ATP hydrolysis per mg protein): SEC fractions of human tumor derived gp96-peptide complex (FIG. 6); for ATPase: gp96 loaded with AH1 19mer peptide
# Experimental: Finally, ATPase activity of each fraction was determined based on the loss of ATP using a luciferin-luciferase luminescence assay. Values are reported as the rate of ATP hydrolysis per mg protein. […] The ATPase activity was in the dimer containing fractions with minimal activity in the high molecular weight aggregate and monomer fractions.
# ATPase activity was measured as the loss of ATP following 4 hr. of incubation at 37° C. using a luciferin-luciferase luminescence assay. Values are reported as the rate of ATP hydrolysis per mg protein and represent only the activity that is geldanamycin inhibitable to ensure specificity for the hsp90 family of heat shock proteins.
# The assay is performed as follows. Gp96 samples (2 μL, 500 μg/mL in PBS) were mixed with 2 μL of a solution comprising a 10 fold molar excess ATP in PBS containing 12.5 mM MgCl2, and either 20% (v/v) DMSO or DMSO containing […] geldanamycin. This mixture was incubated at 37° C. for 4 hr. Samples were then diluted to 100 μL with PBS and the ATP contained in 50 μL of each sample was quantified using the ROCHE CLSII bioluminescence ATP assay kit. Bioluminescence was measured using a Molecular Devices Lmax luminometer. The difference in ATP concentration between uninhibited and Geldanamycin-inhibited measurements reflects the amount of ATP hydrolysis specific to gp96. Rates were calculated from this differential and expressed as nmoles of ATP hydrolyzed per mg protein per hr.
# [2] = % dimer by size exclusion chromatography (SEC); format: physicochemical; details: for % Dimer: Superose 6 column, gp96 loaded with AH1 19mer peptide; for dimeric form by SEC: mild heat treatment
# Experimental: Gp96-peptide complex was isolated from murine CT-26 tumors. Separate aliquots of each preparation were either maintained at 4° C. (untreated) or subjected to mild heat treatment to denature the complex.
# HPLC size exclusion chromatography is currently being optimized and has been run under a few different formats. The column was either a TSK 3000SWXL (Toso Haus) or a Superose 6 (Amersham Pharmacia) equilibrated in 10 mM phosphate buffer, pH 7.1, with 300 mM NaCl. All experiments were run at room temperature on a Waters Alliance or HP 1100 HPLC systems at a flow rate of 0.5 mL/min. The following results for human tumor derived gp96 (reported in Table 3, below) were all analyzed on the Superose 6 column. % dimer values represent the area percent of the dimer peak relative to total peak area.
# [3] = test system: AH1 peptide-specific CTLs co-cultured with RAW264.7 cells; assay: hybrid antigen re-presentation assay (IFN-γ by ELISA); format: cell-based, mouse; details: for IFN-γ response (T-cell stimulation): 10 μg/mL or diluted with unloaded gp96 at 1:3, 1:10 or 1:30, APCs and CTLs (FIG. 7); for ability to stimulate T-cells: heated at 60° C. for 10 min
# Experimental: For this purpose, a hybrid antigen re-presentation bioassay system was developed in which the mouse antigen, AH1 peptide, for which a mouse CD8 T-cell line is available, was exchanged in vitro onto human tumor derived hsp. The gp96-peptide complex was then tested for its ability to facilitate antigen re-presentation and antigen-specific T-cell stimulation.
# The antigen presenting cell line, RAW264.7 (ATCC #TIB-71), is an Abelson murine leukemia virus transformed macrophage cell line, which originated from the BALB/c strain (H-2^d). The CTL line specific for the murine CT26 tumor derived AH1 epitope was obtained from P. Srivastava (U. of Conn. Medical Center). They were re-stimulated on a weekly basis with the AH1 peptide plus irradiated BALB/c splenocytes. The 9 amino acid AH1 peptide epitope ([…]) and the 19mer peptide ([…]) which contained this epitope were obtained from Sigma Genosys 1442 lake Front Circle, The Woodlands, Tex. 77380-3600.
# AH1 19mer peptide was added to purified gp96 preparations at a ratio of 50:1 peptide to protein and the mixture incubated at 37° C. for 30 mm. Unbound peptide was removed by 4 cycles of spin dialysis with 10 volumes of PBS using 30K MWCO Centricon spin filter units (Millipore). Total protein was determined by the Bradford assay.
# The in vitro antigen re-presentation assay has been described. Briefly, 10^4 AH1 peptide-specific CTLs (day 8 post stimulation) were co-cultured with 10^4 RAW264.7 cells in 96-well flat bottom plates. In vitro loaded gp96 samples at 10 μg/mL were analyzed neat or diluted with unloaded gp96 at the indicated amounts in order to maintain constant protein concentration. Protein samples and controls were added to the wells and incubated at 37° C. for 18 hr. Following centrifugation, the supernatants were harvested for analysis of IFN-γ levels by ELISA (R&D Systems). Reported values represent the average of six replicates. AH1 9mer peptide served as a positive control and unloaded gp96, AH1 19mer peptide and media alone as negative controls. Additional negative controls were provided by applying identical sets of samples to plates that contained either CTLs or APCs only.
# The hybrid re-presentation assay measures the ability of human gp96, loaded with AH1 19mer peptide, to deliver antigen to mouse APCs to facilitate re-presentation leading to simulation of antigen specific T-cells. […] The second and third panels are controls for CTLs and APCs alone. Each data set contains media alone, unloaded gp96 and AH1 19mer as negative controls and AH1 9mer peptide, which can exchange directly onto surface MHC I molecules, as the positive control. Gp96/AH1 19mer complex was applied at 10 μg/mL or diluted with unloaded gp96 at 1:3, 1:10 or 1:30.
# [4] = NECA ligand binding
# Experimental: Dimer content also correlates with the ability of gp96 to bind NECA. Using the gp96-peptide complex isolated from CT-26 tumors, aliquots of each preparation were also analyzed for NECA ligand binding.
# [5] = test system: Tumor specific T-cell; assay: antigen re-presentation and T-cell activation measured by IFN-γ release; format: cell-based, murine
# Experimental: Re-presentation of antigenic peptides by hsps is another biological activity of significance. […] Immune response mediated by RAW264.7 APCs and CTLs specific to the peptide of the gp96 complex was measured by IFN-γ levels secreted by the CTLs. IFN-γ is a cytokine that is known in the art to be an indicator of general immune status; it also plays a major role in tumor recognition and rejection. […] A re-presentation assay is described in section 8, by way of example and not limitation.
# The same samples were then analyzed for antigen re-presentation and T-cell activation as measured by IFN-γ expression.
molecule,measurement,setting,value
Fractions 8-10: SEC fractions of human ovarian tumor derived gp96-peptide complex representing the dimer,ATPase activity of SEC fractions (rate of ATP hydrolysis per mg protein),[1],highest
fractions 2-5: SEC fractions of human ovarian tumor derived gp96-peptide complex containing mostly higher molecular weight aggregates,ATPase activity of SEC fractions (rate of ATP hydrolysis per mg protein),[1],significantly less
"fractions 11-15: SEC fractions of human ovarian tumor derived gp96-peptide complex: monomeric species, degradation products and lower molecular weight species",ATPase activity of SEC fractions (rate of ATP hydrolysis per mg protein),[1],significantly less
"human endometrial: gp96 purified from human endometrial tumor, loaded in vitro with AH1 19mer peptide (RVTYHSPSYVYHQFERRAK)",% Dimer,[2]; heated at 60° C. for 10 min,0%
same,% Dimer,[2]; untreated,86% and 83%
same,ATPase,[1]; heated at 60° C. for 10 min,0 nmol/mg/h
same,ATPase,[1]; untreated,8.5 ± 0.3 nmol/mg/h and 9.4 ± 0.5 nmol/mg/h
same,IFN-γ response (T-cell stimulation),[3],dose dependent IFN-γ response
same,ability to stimulate T-cells,[3],abolished
human gp96-peptide complex: human gp96-peptide complex used in accelerated stability (mild heat) study,dimeric form by SEC,[2],converted dimeric protein to high molecular weight aggregates
same,ATPase activity,[1]; mild heat treatment,abolished
"human renal: gp96 purified from human renal cell carcinoma, loaded in vitro with AH1 19mer peptide",% Dimer,[2]; heated at 60° C. for 10 min,0%
same,% Dimer,[2]; untreated,84%
same,ATPase,[1]; heated at 60° C. for 10 min,0 nmol/mg/h
same,ATPase,[1]; untreated,10.3 ± 0.1 nmol/mg/h
same,IFN-γ response (T-cell stimulation),[3],specific and dose dependent stimulation of T-cells
same,ability to stimulate T-cells,[3],abrogated
recombinant gp96: samples of recombinant gp96 incubated at various temperatures for 10 minutes (FIG. 8),ATPase activity,[1]; incubated at the indicated temperatures for 10 minutes (FIG. 8),loss of ATPase activity
unloaded gp96: human tumor derived gp96 not loaded with AH1 19mer peptide; negative control and diluent,IFN-γ response (T-cell stimulation),[3],no stimulation
B1,% Dimer by SEC,[2]; 4° C. (untreated),84.44% and 87% and 75.8%
same,% Dimer by SEC,[2]; 49° C. at 15 min,74%
same,% Dimer by SEC,[2]; 49° C. at 25 min,54%
same,% Dimer by SEC,[2]; 49.5° C. at 30 min,0%
same,% Dimer by SEC,[2]; 60° C. at 30 min,0%
same,% Dimer by SEC,[2]; 60° C. at 60 min,0%
same,% Dimer by SEC,[2]; 60° C. at 120 min,0%
same,dimeric form by SEC,[2],rapidly converts to higher molecular weight aggregates
same,Specific NECA activity,[4]; 4° C. (untreated),1.68 μg NECA bound gp96/μg gp96 and 1.96 μg NECA bound gp96/μg gp96 and 3.27 μg NECA bound gp96/μg gp96
same,Specific NECA activity,[4]; 49° C. at 15 min,1.97 μg NECA bound gp96/μg gp96
same,Specific NECA activity,[4]; 49° C. at 25 min,1.80 μg NECA bound gp96/μg gp96
same,Specific NECA activity,[4]; 49.5° C. at 30 min,0.12 μg NECA bound gp96/μg gp96
same,Specific NECA activity,[4]; 60° C. at 30 min,0.04 μg NECA bound gp96/μg gp96 and 0.07 μg NECA bound gp96/μg gp96
same,Specific NECA activity,[4]; 60° C. at 60 min,0.08 μg NECA bound gp96/μg gp96
same,Specific NECA activity,[4]; 60° C. at 120 min,0.10 μg NECA bound gp96/μg gp96
same,Tumor specific T-cell activation (IFN-γ release),[5]; 49° C. at 15 min,0 pg/mL
same,Tumor specific T-cell activation (IFN-γ release),[5]; 49° C. at 25 min,0 pg/mL
same,Tumor specific T-cell activation (IFN-γ release),[5]; 49.5° C. at 30 min,3150 pg/mL
same,Tumor specific T-cell activation (IFN-γ release),[5]; 60° C. at 60 min,9350 pg/mL
same,Tumor specific T-cell activation (IFN-γ release),[5]; 60° C. at 120 min,8100 pg/mL
